Source: article PMC10598736, “Structural insights into Rad18 targeting by the SLF1 BRCT domains” (The Journal of Biological Chemistry, 2023)
Numbering of substitutions follows the chain as printed. Numbers in names are those of the source. Each block holds one molecule with its values, some of them ahead of it. Square brackets hold non-standard residues; d marks the D form. Ends that are not written are not given here. Peptide text beside a SMILES is read from it. pS = N[C@@H](COP(=O)(O)O)C(=O)O

Legend:
[1] = molecular target: SLF1 tandem BRCT repeat (SLF1^tBRCT), residues 1-199, wild type (UniProt Q9BQI6); assay: ITC; MicroCal ITC 200, 25 °C, 20 mM Tris (pH 7.5), 200 mM sodium chloride; 1.3 mM Rad18 peptide or 6 mM BRCTide injected into 0.1 mM (Rad18 peptides) or 0.2 mM (BRCTide) SLF1^tBRCT in the cell; three independent repeats
[2] = molecular target: T1, SLF1^tBRCT (residues 1–199), WT (Homo sapiens, UniProt Q9BQI6); assay: ITC of peptide binding to wild-type SLF1 tBRCT; details: 25 °C, 20 mM Tris pH 7.5, 200 mM NaCl; for Kd: 1.3 mM Rad18 peptide into 0.1 mM protein (BRCTide 6 mM into 0.2 mM), average ± SD of three independent repeats, ND = not detected
T1 construct: The coding region for SLF1^tBRCT (residues 1–199) was optimized for expression in E. coli; made in house; host or cells: E. coli BL21 Rosetta (DE3)
T1 sequence (Q9BQI6 1-199): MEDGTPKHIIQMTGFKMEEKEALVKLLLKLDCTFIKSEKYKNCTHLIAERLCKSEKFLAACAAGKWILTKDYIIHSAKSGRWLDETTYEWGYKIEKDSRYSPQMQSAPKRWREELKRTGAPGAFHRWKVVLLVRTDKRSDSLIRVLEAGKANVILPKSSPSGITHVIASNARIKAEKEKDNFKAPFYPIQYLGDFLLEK
Experimental: ITC experiments were carried out on a MicroCal ITC 200 instrument (Malvern) at 25 °C. Prior to the ITC experiments, SLF1^tBRCT was exchanged into a buffer containing 20 mM Tris (pH 7.5) and 200 mM sodium chloride and peptides (Sangon Biotech, Scilight biotechnology, Hefei Scierbio-Tech, Synpeptide) were dissolved in the same buffer. To characterize binding, a solution containing 1.3 mM Rad18 peptide or 6 mM BRCTide was injected into a 300-μl cell that stores 0.1 mM (for binding experiments with Rad18 peptides) or 0.2 mM (for the binding experiment with BRCTide) SLF1^tBRCT, 2 μl at a time. Data were analyzed with ORIGIN 7.0 (Originlab).

[3] = molecular target: T2, SLF1 tandem BRCT repeat (SLF1^tBRCT), residues 1-199, wild type (UniProt Q9BQI6 1-199); assay: ITC; MicroCal ITC 200, 25 °C, 20 mM Tris (pH 7.5), 200 mM sodium chloride; 1.3 mM Rad18 peptide or 6 mM BRCTide injected into 0.1 mM (Rad18 peptides) or 0.2 mM (BRCTide) SLF1^tBRCT in the cell; three independent repeats; details: both partners purified
T2 construct: SMC5/6 localization factor 1 (SLF1), tandem BRCT repeat at the N-terminus, residues 1-199; coding region optimized for E. coli and synthesized; also called WT; SMC5/6 localization factor 1 tBRCT; source: E. coli BL21 Rosetta (DE3), purified (Ni-NTA, heparin, gel filtration)
T2 sequence (looked up): T1 sequence (Q9BQI6 1-199)

SLF1^tBRCT I189A = molecular target: T3, SLF1^tBRCT I189A (UniProt Q9BQI6 1-199, I189A); assay: as above; details: both partners purified
T3 construct: SMC5/6 localization factor 1 (SLF1), tandem BRCT repeat, residues 1-199, with I189A; source: E. coli BL21 Rosetta (DE3), purified (same protocol as the wild type)
T3 sequence (looked up): T1 sequence (Q9BQI6 1-199) with I189A

SLF1^tBRCT K56A = molecular target: T4, SLF1^tBRCT K56A (UniProt Q9BQI6 1-199, K56A); assay: as above; details: both partners purified
T4 construct: SMC5/6 localization factor 1 (SLF1), tandem BRCT repeat, residues 1-199, with K56A; also called K56A-substituted SLF1^tBRCT; source: E. coli BL21 Rosetta (DE3), purified (same protocol as the wild type)
T4 sequence (looked up): T1 sequence (Q9BQI6 1-199) with K56A

SLF1^tBRCT R50A = molecular target: T5, SLF1^tBRCT R50A (UniProt Q9BQI6 1-199, R50A); assay: as above; details: both partners purified
T5 construct: SMC5/6 localization factor 1 (SLF1), tandem BRCT repeat, residues 1-199, with R50A; also called R50A-substituted SLF1^tBRCT; source: E. coli BL21 Rosetta (DE3), purified (same protocol as the wild type)
T5 sequence (looked up): T1 sequence (Q9BQI6 1-199) with R50A

SLF1^tBRCT L142A = molecular target: T6, SLF1^tBRCT L142A (UniProt Q9BQI6 1-199, L142A); assay: as above; details: both partners purified
T6 construct: SMC5/6 localization factor 1 (SLF1), tandem BRCT repeat, residues 1-199, with L142A; source: E. coli BL21 Rosetta (DE3), purified (same protocol as the wild type)
T6 sequence (looked up): T1 sequence (Q9BQI6 1-199) with L142A

dH [1]: -1.1 kcal/mol
stoichiometry N [1]: 1.28
Molecule: Rad18-pS444 peptide (from UniProt Q9NS91 436-452)

binding to SLF1^tBRCT by ITC (in words) [2]: undetectable
Molecule: Rad18-pS442-4A: Rad18-pS442 peptide with I446A/I447A/L450A/L451A substitutions (SDSCNS[pS]SSDAARDAAE)

Kd [2]: 15 ± 3 nM
Molecule: CC[C@H](C)[C@H](NC(=O)[C@H](CC(=O)O)NC(=O)[C@H](COP(=O)(O)O)NC(=O)[C@H](CO)NC(=O)[C@H](COP(=O)(O)O)NC(=O)[C@H](CO)NC(=O)[C@H](CC(N)=O)NC(=O)[C@H](CS)NC(=O)[C@H](CO)NC(=O)[C@H](CC(=O)O)NC(=O)[C@@H](N)CO)C(=O)N[C@H](C(=O)N[C@@H](CCCNC(=N)N)C(=O)N[C@@H](CC(=O)O)C(=O)N[C@@H](CC(C)C)C(=O)N[C@@H](CC(C)C)C(=O)N[C@@H](CCC(=O)O)C(=O)O)[C@@H](C)CC [Rad18-2P] (H-SDSCNS[pS]S[pS]DIIRDLLE-OH)

dH [1]: -1.79 kcal/mol
stoichiometry N [1]: 1.13
Molecule: singularly phosphorylated Rad18-pS442 peptide (from UniProt Q9NS91 436-452)

Kd [2]: 19700 ± 6460 nM
Molecule: CC[C@H](C)[C@H](NC(=O)[C@H](CC(=O)O)NC(=O)[C@H](COP(=O)(O)O)NC(=O)[C@H](CO)NC(=O)[C@H](CO)NC(=O)[C@H](CO)NC(=O)[C@H](CC(N)=O)NC(=O)[C@H](CS)NC(=O)[C@H](CO)NC(=O)[C@H](CC(=O)O)NC(=O)[C@@H](N)CO)C(=O)N[C@H](C(=O)N[C@@H](CCCNC(=N)N)C(=O)N[C@@H](CC(=O)O)C(=O)N[C@@H](CC(C)C)C(=O)N[C@@H](CC(C)C)C(=O)N[C@@H](CCC(=O)O)C(=O)O)[C@@H](C)CC [Rad18-pS444] (H-SDSCNSSS[pS]DIIRDLLE-OH)

binding to SLF1^tBRCT by ITC (in words) [2]: undetectable
Molecule: Rad18-pS442-2IA: Rad18-pS442 peptide with I446A/I447A substitution (SDSCNS[pS]SSDAARDLLE)

binding to SLF1^tBRCT by ITC (in words) [2]: undetectable
Molecule: Rad18-NP: unphosphorylated Rad18 peptide of the Ser442/Ser444-containing region (SDSCNSSSSDIIRDLLE)

Kd [2]: 156 ± 5 nM
Molecule: CC[C@H](C)[C@H](NC(=O)[C@H](CC(=O)O)NC(=O)[C@H](CO)NC(=O)[C@H](CO)NC(=O)[C@H](COP(=O)(O)O)NC(=O)[C@H](CO)NC(=O)[C@H](CC(N)=O)NC(=O)[C@H](CS)NC(=O)[C@H](CO)NC(=O)[C@H](CC(=O)O)NC(=O)[C@@H](N)CO)C(=O)N[C@H](C(=O)N[C@@H](CCCNC(=N)N)C(=O)N[C@@H](CC(=O)O)C(=O)N[C@@H](CC(C)C)C(=O)N[C@@H](CC(C)C)C(=O)N[C@@H](CCC(=O)O)C(=O)O)[C@@H](C)CC [Rad18-pS442] (H-SDSCNS[pS]SSDIIRDLLE-OH)

Kd [3]: 44 nM
dH [3]: -2.54 kcal/mol
stoichiometry N [3]: 1.76
B1: Rad18-2P-N440A peptide (peptide, UniProt Q9NS91 436-452, looked up)
peptide: SDSCAS[pS]S[pS]DIIRDLLE
notes: Rad18, human, residues 436-452, with N440A; source: synthetic peptide

Kd [3]: 27500 nM
dH [3]: -0.75 kcal/mol
stoichiometry N [3]: 1.12
Molecule: GAAYDI[pS]QVFPFAKKK (source: synthetic peptide) [BRCTide, phosphopeptide optimized for binding to the BRCA1 tBRCT]

Kd [3]: 450 nM
dH [3]: -2.39 kcal/mol
stoichiometry N [3]: 1.67
B2: Rad18-pS442-2LA peptide (L450A/L451A) (peptide, UniProt Q9NS91 436-452, looked up)
peptide: SDSCNS[pS]SSDIIRDAAE
notes: Rad18, human, residues 436-452, with L450A/L451A; source: synthetic peptide

Kd [3]: 38 nM
dH [3]: -2.15 kcal/mol
stoichiometry N [3]: 1.63
B3: Rad18-2P-R448A peptide (peptide, UniProt Q9NS91 436-452, looked up)
peptide: SDSCNS[pS]S[pS]DIIADLLE
notes: Rad18, human, residues 436-452, with R448A; source: synthetic peptide

dH [1]: -4.04 kcal/mol
stoichiometry N [1]: 1.28
Kd (SLF1^tBRCT I189A): 31 nM
dH (SLF1^tBRCT I189A): -2.98 kcal/mol
stoichiometry N (SLF1^tBRCT I189A): 1.21
Kd (SLF1^tBRCT K56A): 2210 nM
dH (SLF1^tBRCT K56A): -0.86 kcal/mol
stoichiometry N (SLF1^tBRCT K56A): 1.16
Kd (SLF1^tBRCT R50A): 160 nM
dH (SLF1^tBRCT R50A): -3.82 kcal/mol
stoichiometry N (SLF1^tBRCT R50A): 1.45
Kd (SLF1^tBRCT L142A): 116 nM
dH (SLF1^tBRCT L142A): -5.07 kcal/mol
stoichiometry N (SLF1^tBRCT L142A): 1.31
B4: Rad18 peptide containing phosphorylated Ser442 and Ser444 (Rad18-2P) (peptide, UniProt Q9NS91 436-452, looked up)
peptide: SDSCNS[pS]S[pS]DIIRDLLE
notes: Rad18, human, Ser442/Ser444-containing region, residues 436-452; also called dually phosphorylated Rad18 peptide; source: synthetic peptide

Kd [3]: 77 nM
dH [3]: -1.11 kcal/mol
stoichiometry N [3]: 1.52
B5: Rad18-2P-D449A peptide (peptide, UniProt Q9NS91 436-452, looked up)
peptide: SDSCNS[pS]S[pS]DIIRALLE
notes: Rad18, human, residues 436-452, with D449A; source: synthetic peptide
